Assay results reported in US20210088528A1 (published 2021).

Experiments:
human PD-L1-His6 [1] = target: T1, human PD-L1-His6 (human, UniProt Q9NZQ7 19-238); test: BLI, PD-1-Fc on AHC biosensor
T1 construct: extracellular domain; also called hPD-L1; B7-H1; not shown: His6 tag (by the name PD-L1-His6)
Protocol: (§1) BLI was performed on an Octet RED96® system at 30° C. in a buffer of 150 mM NaCl, 20 mM HEPES:NaOH pH 7.4, 0.1% BSA and 0.05% Tween 20. The human PD-1-Fc proteins were loaded onto anti-human IgG Fc capture (AHC) biosensors, associated in defined concentrations of human PD-L2-His6 or PD-L1-His6 proteins, and then dissociated in buffer.
(§2) Using bio-layer interferometry (BLI), the binding of PD-L2 to wild-type PD-1 and the variants was compared (data not shown). The binding of sensor-loaded PD-1 and the loop variants to 190 nM PD-L2 and 1.1 μM PD-L1 was measured using biolayer interferometry. Corresponding PD-1-Fc proteins were loaded on anti-human IgG Fc capture (AHC) biosensors. Association was monitored for 2 min and dissociation for 2 min. Fitting of binding curves was performed in Graphpad Prism 8 software using built-in equations of “Receptor binding—kinetics” models. Means and standard deviations were calculated from 3-4 independent experiments. […] Fitting of binding curves was performed in Graphpad Prism 8 using built-in equations of “Receptor binding—kinetics” models. Means and standard deviations were calculated from 3-4 independent experiments. […] Kinetic measurements of binding of the ligands by PD-1 with BLI also permitted the determination of association constants (kₒₙ).

human PD-L2-His6 [2] = target: T2, human PD-L2-His6 (human, UniProt Q9BQ51 20-220); test: BLI, PD-1-Fc on AHC biosensor
T2 construct: extracellular domain; also called hPD-L2; B7-DC; not shown: His6 tag (by the name PD-L2-His6)
T2 sequence (looked up): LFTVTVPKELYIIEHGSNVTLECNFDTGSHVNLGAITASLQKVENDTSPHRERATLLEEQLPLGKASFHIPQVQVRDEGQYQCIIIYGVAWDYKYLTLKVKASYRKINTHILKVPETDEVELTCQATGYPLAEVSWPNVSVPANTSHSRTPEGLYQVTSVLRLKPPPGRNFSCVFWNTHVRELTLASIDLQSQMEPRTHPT
Protocol: as §1, §2

human PD-L1-His6 [3] = target: T1, human PD-L1-His6; test: BLI (Octet RED96), PD-1-Fc on AHC biosensor, PD-L1-His6 in solution
Protocol: as §1, §2

human PD-L2-His6 [4] = target: T2, human PD-L2-His6; test: BLI (Octet RED96), PD-1-Fc on AHC biosensor, PD-L2-His6 in solution
Protocol: as §1, §2

T1 sequence (Q9NZQ7 19-238): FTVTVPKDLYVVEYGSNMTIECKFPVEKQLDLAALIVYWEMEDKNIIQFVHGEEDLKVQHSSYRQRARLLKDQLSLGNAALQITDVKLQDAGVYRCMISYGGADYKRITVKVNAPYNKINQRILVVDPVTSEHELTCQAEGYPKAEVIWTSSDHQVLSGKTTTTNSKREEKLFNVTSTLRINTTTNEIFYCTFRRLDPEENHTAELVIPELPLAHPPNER

B1: human PD-1-Fc N74G T76P A132V (Fc fusion)
chain: PGWFLDSPDRPWNPPTFSPALLVVTEGDNATFTCSFSNTSESFVLNWYRMSPSGQPDKLAAFPEDRSQPGQDCRFRVTQLPNGRDFHMSVVRARRNDSGTYLCGAISLAPKVQIKESLRAELRVTERRAE
notes: also called PD-1 triple mutant; triple-mutant; not shown: Fc portion
Human PD-L1-His6 [1]
  fold increase of kon against wild-type PD-1: 14 fold
Human PD-L2-His6 [2]
  fold increase in binding affinity against wild-type PD-1: ~200 fold
  fold increase of kon against wild-type PD-1: 3 fold
Human PD-L1-His6 [3]
  Kd: 72 nM
  koff: 0.036 s⁻¹
  kon: 520000 M⁻¹ s⁻¹
Human PD-L2-His6 [4]
  Kd: 2.6 nM
  koff: 0.0014 s⁻¹
  kon: 580000 M⁻¹ s⁻¹
